Series [1] addresses T1, HNF4α ΔABΔF (DBD-hinge-LBD) (human, UniProt P41235-2 55-377).
T1 sequence: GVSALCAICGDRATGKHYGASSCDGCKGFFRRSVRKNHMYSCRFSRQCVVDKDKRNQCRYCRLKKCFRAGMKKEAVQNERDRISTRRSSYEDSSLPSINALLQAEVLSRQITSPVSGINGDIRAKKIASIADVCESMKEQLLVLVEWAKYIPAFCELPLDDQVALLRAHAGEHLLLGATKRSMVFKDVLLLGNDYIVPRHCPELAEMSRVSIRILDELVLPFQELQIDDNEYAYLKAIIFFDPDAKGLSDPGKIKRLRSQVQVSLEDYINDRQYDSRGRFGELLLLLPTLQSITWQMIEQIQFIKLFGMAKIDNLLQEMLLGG
Briefly: fluorescence anisotropy. (Polarisation of emitted light reports the rotation of a fluorescent probe.)

The target in the next series is T2, HNF4α DBD (DBD-hinge) (human, UniProt P41235-2 55-135).
T2 sequence: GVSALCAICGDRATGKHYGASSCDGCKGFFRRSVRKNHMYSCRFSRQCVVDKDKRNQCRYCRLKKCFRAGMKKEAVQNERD
In words: fluorescence anisotropy.

B1: DR1 (5'-fluorescein top strand) (dsDNA)
DNA 1: GGAACTAGGTCAAAGGTCAG
DNA 2: CCTGACCTTTGACCTAGTTC
As to B1, the Kd in series [1] was 0.082 µM; with HNF4α DBD (DBD-hinge), approximately 6 µM.

Usually Kd stands for the concentration at which binding is half-saturated.

The values above are taken from paper PMC3606643.
